Measurements: paper PMC5003356

molecular target: T1, NLuc-La dR1/R2 internal_change (UniProt P05455); assay: BRET; conditions: PS; 5-10-5 (S)-cEt gap-mer; BRET: 1X binding buffer (0.1 M potassium acetate, 20 mM Tris pH 7.5, 1 mM EDTA, 0.01% NP-40), room temperature, 15 min; FP in the same buffer; c-Jun in OptiMEM …
T1 sequence: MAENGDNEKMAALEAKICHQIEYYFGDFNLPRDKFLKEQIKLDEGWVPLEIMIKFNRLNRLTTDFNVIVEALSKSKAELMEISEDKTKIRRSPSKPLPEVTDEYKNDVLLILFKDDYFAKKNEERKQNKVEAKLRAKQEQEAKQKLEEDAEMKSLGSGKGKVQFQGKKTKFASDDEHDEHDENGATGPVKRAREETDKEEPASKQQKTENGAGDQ

Sequence | binding signal (fold lower affinity than full length)
CTGCTAGCCTCTGGATTTGA [766636 cEt gap-mer] | 50

molecular target: T2, P54nrb-HIS (UniProt Q15233); assay: competition FP; conditions: 3-10-3 cEt gap-mer; BRET: 1X binding buffer (0.1 M potassium acetate, 20 mM Tris pH 7.5, 1 mM EDTA, 0.01% NP-40), room temperature, 15 min; FP in the same buffer; c-Jun in OptiMEM …
T2 sequence: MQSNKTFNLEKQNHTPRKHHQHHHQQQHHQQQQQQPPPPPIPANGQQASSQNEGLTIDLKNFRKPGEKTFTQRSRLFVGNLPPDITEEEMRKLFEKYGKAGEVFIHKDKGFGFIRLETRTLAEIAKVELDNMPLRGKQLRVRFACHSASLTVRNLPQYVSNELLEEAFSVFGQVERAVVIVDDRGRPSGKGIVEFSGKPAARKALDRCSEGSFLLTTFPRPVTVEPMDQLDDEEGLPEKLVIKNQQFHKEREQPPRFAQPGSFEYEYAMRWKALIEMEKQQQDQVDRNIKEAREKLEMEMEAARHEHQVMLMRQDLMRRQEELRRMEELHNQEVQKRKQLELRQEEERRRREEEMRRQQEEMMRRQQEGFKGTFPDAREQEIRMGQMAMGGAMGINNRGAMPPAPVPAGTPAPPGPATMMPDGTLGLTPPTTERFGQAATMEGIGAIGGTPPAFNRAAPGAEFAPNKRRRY

Sequence | Kd
AACATGTCTGCCAGGG [660956] | 33 nM
ACCCTGCCACGATGTA [660992] | 95.1 nM
CCACTGCGCAGGCCAG [660935] | 337 nM
CCAGCGGGTGGACTGT [660923] | 38.3 nM
CCCTCCCTCCCGCTAG [661121] | 19.5 nM
CTGGGAACTGGTCACC [660899] | 119 nM
CTTCTAGCCACTGGCT [661010] | 326 nM
GGGAGGAGGACAGCTC [660908] | 4.6 nM
GTTAAGAAGGCTGTCC [661073] | 260 nM
TCAGTCATGGTATAAA [661115] | 86.9 nM
TCCACAGAGCGGACTG [660965] | 310 nM
TGAGAAGATCTCCCGG [661103] | 33.6 nM
